Data reported in the supplement of paper PMC9732359.
± gives the uncertainty stated by the source.

Assay: protein stability index of a GFP-peptide fusion (yeast GPS) (PSI 1-4); higher = more stable; sorted into four equal gates, so the index is relative within each strain
Outline: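 Yeast carrying a pooled library were grown to mid-log phase in leucine-free medium. Each library plasmid expresses Cherry and has a tiled 17-residue yeast protein peptide fused downstream of GFP. Cells were sorted into four equal gates by GFP/Cherry ratio, and plasmids from each gate were PCR-amplified, Illumina-sequenced and assigned to strains by barcode. Summing, across gates, the read frequency times the gate number gave each peptide's protein stability index.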

Sequence	protein stability index (doa10∆)	protein stability index (san1∆)	protein stability index (ubr1∆)	protein stability index (pdr5∆)
LERARDVNIVNRRLVYS [YCG1]	2.44 ± 0.27	1.72 ± 0.29	1.66 ± 0.13	
MENIKKSIDSKTPEEVE [ISW2]	2.92 ± 0.17	3.13 ± 0.089	3.23 ± 0.11	3.09 ± 0.23
IIANINSFTKGNVFSPI [SNU114]	2.18 ± 0.085	2.43 ± 0.05	2.21 ± 0.039	2.54 ± 0.067
NAEAKGLDATKLYVSHI [RPL17A]	3.23 ± 0.16	3.01 ± 0.05	3.03 ± 0.071	3.13 ± 0.092
LGFTPGELRSYLKGATG [FAS1]	3.26 ± 0.15	3.33 ± 0.17	3.41 ± 0.17	3.66 ± 0.28
NVSLIKIEGVATPQEAQ [RPL33B]	2.76 ± 0.07	2.92 ± 0.074	2.61 ± 0.055	2.78 ± 0.096
SSSSLECATCHGNLASC [RPO31]	2.79 ± 0.046	3.05 ± 0.049	2.95 ± 0.037	3.04 ± 0.058
VSGDAAALFRLHKFLTK [SWI3]	2.92 ± 0.14	2.72 ± 0.098	3.08 ± 0.11	2.6 ± 0.15
LFGSKPQGSTTNGGLFG [YGR119C/NUP57]	3.38 ± 0.086	3.43 ± 0.045	3.28 ± 0.037	3.47 ± 0.067
NDNEDDDEEYDYNDVEV [BRR2]	3.28 ± 0.077	3.34 ± 0.06	3.4 ± 0.052	3.22 ± 0.079
YREAPVIYRGPEPSHID [RET1]	2.83 ± 0.22	3.21 ± 0.16	3.36 ± 0.16	3.07 ± 0.23
AHMSIGCLHKGKLISNL [YML031W/NDC1]	2.04 ± 0.079	2.14 ± 0.15	1.83 ± 0.065	1.9 ± 0.058
PKKFGGKGARSRFQKSY [RPS16A]	3.22 ± 0.12	3.31 ± 0.13	2.93 ± 0.1	3.31 ± 0.11
NLRLLNSIDSTSRIELE [ECM29]	2.91 ± 0.094	2.92 ± 0.064	2.98 ± 0.057	3.08 ± 0.077
LSSGESNEIKVTNDLDT [SIR4]	2.94 ± 0.16	2.88 ± 0.22	2.52 ± 0.08	2.97 ± 0.12
ISHIEKRIESLQKDLQR [SMC1]	1.86 ± 0.065	1.75 ± 0.09	1.85 ± 0.066	2.48 ± 0.077
HLRVRVHPFHVLRINKM [RPL10]	1.12 ± 0.09	1.2 ± 0.087	1.27 ± 0.08	1.21 ± 0.072
PMASSSSFGSESLTFNE [SWI1]	3.15 ± 0.043	3.14 ± 0.035	3.099 ± 0.029	3.16 ± 0.041
DQAELPNNASSHISASA [SNF2]	1.79 ± 0.085	2.1 ± 0.13	2.35 ± 0.063	2.35 ± 0.068
RLQAANSMEYTGKITKM [CDC53]	2.99 ± 0.12	2.52 ± 0.094	2.73 ± 0.064	2.62 ± 0.14
IEEQDKKVQALQSDKNF [ITC1]	3.23 ± 0.076	3.14 ± 0.045	3.16 ± 0.036	3.11 ± 0.054
LTIDDLGVASFHGTSTK [FAS2]	2.99 ± 0.063	3.03 ± 0.06	3.01 ± 0.047	3.01 ± 0.071
IRKLTLRDTFIELDQVL [RPO21]	2.31 ± 0.12	2.7 ± 0.074	2.23 ± 0.11	2.89 ± 0.079
ICYDVNDWQMLEMLKPC [RPB2]	2.62 ± 0.063	2.46 ± 0.073	2.61 ± 0.062	2.67 ± 0.086
PALLRPGRLDRKIEFPS [RPT3]	3.2 ± 0.11	3.07 ± 0.11	3 ± 0.066	3.08 ± 0.11
LKENNAILQKSLKNVTE [YIL149C/MLP2]	2.67 ± 0.049	2.89 ± 0.038	2.75 ± 0.044	2.57 ± 0.057
